1 substance from publication PMC11573651 can be followed below.

The target in the test is His-NifH^RS (Roseiflexus sp. RS-1 dinitrogenase reductase NifH) (Roseiflexus sp. RS-1). Nature of the test: not stated; molecular size and quaternary structure of the purified protein (Table 1); the method is in SI Appendix Figs. S8, S9, S14 and S15.

By stoichiometry N is commonly meant the number of molecules, sites or subunits per partner or assembly. For “His-NifH^RS (Roseiflexus sp. RS-1 dinitrogenase reductase NifH) (natural protein)”, the stoichiometry N worked out at 2.
